Source: patent US20160264666A1 (INSERM INSTITUT NATIONAL DE LA SANTE ET DE LA RECHERCHE …, published 2016)

T1: ICOS (Inductible T cell costimulator) (UniProt Q9Y6W8 21-199, limits assumed)
T1 construct: whole, on cells; also called ICOS on JICOS.1 cells
T1 sequence (looked up): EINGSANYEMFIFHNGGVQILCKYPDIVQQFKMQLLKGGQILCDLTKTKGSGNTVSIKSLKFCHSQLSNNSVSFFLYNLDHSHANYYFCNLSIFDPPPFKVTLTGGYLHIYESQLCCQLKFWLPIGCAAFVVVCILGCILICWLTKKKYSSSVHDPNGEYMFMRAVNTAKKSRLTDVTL


Experiments:
[1] = molecular target: T1, ICOS (Inductible T cell costimulator); assay: flow cytometry on JICOS.1 cells, inhibition of ICOS L-Fc binding to ICOS, revealed with GAH-PE; printed as [ID] 50
Text: (§1) They used a gradient of concentration of anti-ICOS mAbs and theyr reveled the fixation to ICOS L Fc thanks to a probe coupled to a fluorochrom (GAH-PE: Goat anti-human-PE). The analysis was made by flow cytometry.

[2] = molecular target: T1, ICOS (Inductible T cell costimulator); assay: flow cytometry on JICOS.1 cells (ICOS transfectants), mAb titration revealed with GAM-PE; printed as [ED] 50
Procedure: (§2) The inventors developed 5 anti-ICOS Abs. Their isotype was assayed by ELISA. For obtaining an indirect analysis of their affinity for their receptor, mAbs were tested using stable transfectants expressing ICOS. JICOS.1 cells were in the presence of an increasing range of anti-ICOS mAbs labeled with a probe coupled to a fluorochrome (PE-GAM: Goat anti mouse-PE) and the analysis was made thanks to cytometry flow.

[3] = molecular target: T1, ICOS (Inductible T cell costimulator); assay: flow cytometry on JICOS.1 cells, inhibition of ICOS L-Fc binding to ICOS; printed as ID 50
Text: as §1

[4] = molecular target: T1, ICOS (Inductible T cell costimulator); assay: flow cytometry on JICOS.1 cells, mAb titration revealed with GAM-PE; printed as ED 50
Procedure: as §2

Binder	IC50 [1]	EC50 [2]	IC50 [3]	EC50 [4]
ICOS 88-2 (antibody, V domains shown, Mouse hybridoma monoclonal antibody; isotype printed as IgG1-L; Agonist of ICOS; also called anti-ICOS mAb 88-2) VH: QVQLQQPGAELVRPGASVKLSCKASGYSFTSYWINWVKQRPGQGLEWIGNIYPSDSYTNYNQMFKDKATLTVDKSSNTAYMQLTSPTSEDSAVYYCTRWNLSYYFDNNYYLDYWGQGTTLTVSS VL: DIVMTQAAPSVPVTPGESVSISCRSSKSLLHSNGNTYLYWFLQRPGQSPQLLIYRMSNLASGVPDRFSGSGSGTAFTLRISRVEAEDVGVYYCMQHLEYPWTFGGGTKLEIK	17 µg/mL	1.6 µg/mL		
ICOS 314-8 (antibody, V domains shown, Mouse hybridoma monoclonal antibody; isotype printed as IgG1-K; Antagonist of ICOS) VH: QVQLQQPGTELMKPGASVKLSCKASGYTFTTYWMHWVKQRPGQGLEWIGEIDPSDSYVNYNQNFKGKATLTVDKSSSTAYIQLSSLTSEDSAVYFCARSPDYYGTSLAWFDYWGQGTLVTVST VL: DIVMTQAAPSVPVTPGESVSISCRSSKSPLHSNGNIYLYWFLQRPGQSPQLLIYRMSNLASGVPDRFSGSGSGTTFTLKISRVEAEDVGVYYCMQHLEYPYTFGGGTKLEIK	0.29 µg/mL	0.06 µg/mL	< 1000 µg/mL	< 0.5 µg/mL
